One assay concerns the target T1, human NaPi2b (human, UniProt O95436 1-690).
T1 construct: whole, on cells; read as O95436; Detected by immunohistochemistry in tissue sections; also called SLC34A2; NaPiIIb
T1 sequence (looked up): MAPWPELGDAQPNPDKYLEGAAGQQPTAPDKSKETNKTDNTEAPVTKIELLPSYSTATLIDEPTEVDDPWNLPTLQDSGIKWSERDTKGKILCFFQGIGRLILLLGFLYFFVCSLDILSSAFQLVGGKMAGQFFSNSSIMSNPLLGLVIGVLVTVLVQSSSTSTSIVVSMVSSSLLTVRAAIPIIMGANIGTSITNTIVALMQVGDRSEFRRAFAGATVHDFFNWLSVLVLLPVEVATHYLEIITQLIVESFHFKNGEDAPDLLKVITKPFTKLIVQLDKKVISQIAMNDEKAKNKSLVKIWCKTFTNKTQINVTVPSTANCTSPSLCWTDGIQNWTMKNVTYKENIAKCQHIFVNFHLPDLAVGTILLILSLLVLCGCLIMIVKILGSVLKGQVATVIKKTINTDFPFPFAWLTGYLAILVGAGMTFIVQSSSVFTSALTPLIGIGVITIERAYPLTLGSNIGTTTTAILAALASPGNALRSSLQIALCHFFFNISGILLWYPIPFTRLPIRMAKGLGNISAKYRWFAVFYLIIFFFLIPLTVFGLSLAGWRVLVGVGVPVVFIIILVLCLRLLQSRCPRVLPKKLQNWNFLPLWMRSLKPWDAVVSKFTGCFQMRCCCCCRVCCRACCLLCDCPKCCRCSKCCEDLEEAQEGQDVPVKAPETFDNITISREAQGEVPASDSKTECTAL
In words: immunohistochemistry, human lung tumor tissue microarray. As to the method: An immunohistochemical assay for MERS67 was established on a Leica BondRx Instrument. The assay was performed on tissue microarrays (TMA), including NSCLC and small cell lung cancer (SCLC) cell line arrays, and a NSCLC human tumor array. Tumors in the NSCLC array had previously been classified based on morphologic features only. All arrays were scored based on the H-score method.
To characterize the primary tumors further, the tumor TMA was stained with TTF-1 and p40, markers of ACA and squamous cell carcinoma (SCC), respectively. Results of this staining were compared to MERS67 staining patterns. H-Scores in the NSCLC cell line TMA ranged from 0-260, and from 0-100 in the small cell lung carcinoma (SCLC) TMA. Within the tissue microarray, 99 individual cases were evaluable. By morphologic classification 63 cases were SCC, and 23 cases were ACA. Using an arbitrary cut point of H=50, there was a statistically significant difference in the number of NaPi2b positive ACA cases (19/23) vs SCC (3/63). FIG. 13 is a box plot of the H scores derived from MERS67 IHC comparing SCC vs ACA, when these tumors were classified by morphology only.

Assay [1] concerns the target T2, Human cyclized NaPi2b peptide (human).
T2 construct: also called Human NaPi2b peptide
The assay is described as follows: ELISA on plate-coated human cyclized NaPi2b peptide, one site-specific binding fit. As to the method: Human cyclized NaPi2b peptide were generated and lyophilized covering the amino acids identified in the XMT-1535 epitope (New England Peptide, Gardner, Mass.). For the ELISA, the lyophilized NaPi2b peptide was reconstituted in DMSO. Human NaPi2b peptide was used to coat 96-Well high binding clear ELISA plates (Corning, 3369) at 1 μg/mL in sodium carbonate buffer, pH 9 to a total volume of 100 μl per well. After a 2-hour incubation, plates were washed 4 times with 100 μl per well TBS-Tween 20, blocked with 3% BSA in TBS-Tween 20 (100 μl per well) for 1 hour, and washed again. Test articles, MERS67 (Lot U0859BH and Lot U5569BL), XMT-1535, and the non-binding control (trastuzumab) were added to the wells at a dose concentration range from 100 nM to 0.002 nM using an […] 3-fold serial dilution in TBS-Tween 20 buffer at 100 μl per well. Plates were incubated for 1 hour with rocking then washed as above. […] The Optical Density (O.D.) was measured at 450 nm with a SpectraMax M5 microplate reader (Molecular Devices, Sunnyvale, Calif.). The O.D. for each treatment was graphed, and Kd calculated for each antibody with GraphPad Prism software (GraphPad Software Inc., La Jolla, Calif.) by non-linear regression using the one site-specific binding model.
(In an ELISA, binding on a coated surface is turned into a signal by an enzyme label.)

Values joined by “and” are separate entries in the source; they are usually repeats but may differ in a detail not shown here. Equal entries are not always repeated.

B1: MERS67 (antibody, rabbit IgG1, V domains shown)
VH: QVQLVQSGAEVVKPGASVKMSCKASGYTFTGYNIHWVKQAPGQGLEWIGAIYPGNGDTSYKQKFRGRATLTADTSTSTVYMELSSLRSEDSAVYYCARGETARATFAYWGQGTLVTVSS
VL: DIQMTQSPSSLSASVGDRVTITCSASQDIGNFLNWYQQKPGKTVKVLIYYTSSLYSGVPSRFSGSGSGTDYTLTISSLQPEDFATYYCQQYSKLPLTFGQGTKLELKR
notes: XMT-1535 variable regions joined to the rabbit IgG1 constant region and the rabbit Ig kappa-b4 C region; Two lots tested: U0859BH (one-step purification) and U5696BL (two-step purification); also called MER67; chimeric NaPi2b antibody
A word on the Kd: it is the concentration at which binding is half-saturated. On to B1, for which the binding result with human NaPi2b was “binds”. In addition, in assay [1], the equilibrium dissociation constant (Kd) is 0.256 nM and 0.104 nM.

For the origin of these results see patent US20190160181A1 (MERSANA THERAPEUTICS, published 2019).
